Results from publication PMC5549770, “Human cytomegalovirus IE1 downregulates Hes1 in neural progenitor cells as a potential E3 ubiquitin ligase” (PLoS Pathogens, 2017).

T1: His-IE1 (pET-IE1) (human cytomegalovirus (Towne strain), UniProt P03169 1-491)
T1 construct: HCMV IE1 (UL123), wild type, cloned into pET28a; 491 amino acids (Towne); also called purified IE1; source: E. coli BL21, purified (cOmplete His-Tag Purification Resin); not shown: His6, N-terminal, kept
T1 sequence: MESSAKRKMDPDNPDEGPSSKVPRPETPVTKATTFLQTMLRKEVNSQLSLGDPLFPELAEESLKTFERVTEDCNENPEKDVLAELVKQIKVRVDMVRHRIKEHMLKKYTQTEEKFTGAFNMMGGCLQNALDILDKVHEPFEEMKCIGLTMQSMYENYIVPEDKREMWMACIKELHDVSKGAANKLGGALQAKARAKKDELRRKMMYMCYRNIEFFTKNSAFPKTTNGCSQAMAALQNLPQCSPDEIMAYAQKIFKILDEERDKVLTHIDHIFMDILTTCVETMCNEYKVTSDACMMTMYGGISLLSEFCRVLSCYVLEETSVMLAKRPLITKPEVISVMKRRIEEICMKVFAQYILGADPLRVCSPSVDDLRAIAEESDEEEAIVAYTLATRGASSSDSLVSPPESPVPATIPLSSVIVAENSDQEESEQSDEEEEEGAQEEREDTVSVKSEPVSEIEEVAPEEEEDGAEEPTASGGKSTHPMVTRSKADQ

B1: His-Sp100A (pET-Sp100A) (natural protein)
chain: not shown
notes: human Sp100A (isoform A of the nuclear autoantigen Sp-100) cloned into pET28a; also called purified Sp100A; source: E. coli BL21, purified (cOmplete His-Tag Purification Resin); not shown: His6, N-terminal, kept
B2: His-Hes1 (pET-Hes1) (natural protein, human, UniProt Q14469 1-280, looked up)
chain: MPADIMEKNSSSPVAATPASVNTTPDKPKTASEHRKSSKPIMEKRRRARINESLSQLKTLILDALKKDSSRHSKLEKADILEMTVKHLRNLQRAQMTAALSTDPSVLGKYRAGFSECMNEVTRFLSTCEGVNTEVRTRLLGHLANCMTQINAMTYPGQPHPALQAPPPPPPGPGGPQHAPFAPPPPLVPIPGGAAPPPGGAPCKLGSQAGEAAKVFGGFQVVPAPDGQFAFLIPNGAFAHSGPVIPVYTSNSGTSVGPNAVSPSSGPSLTADSMWRPWRN
notes: human Hes1 cloned into pET28a; also called purified Hes1; source: E. coli BL21, purified (cOmplete His-Tag Purification Resin); not shown: His6, N-terminal, kept

Legend:
His-IE1 (pET-IE1) [1] = biological target: T1, His-IE1 (pET-IE1); assay: pull-down; purified His-Sp100A mixed with Ubc5a in the presence of purified His-IE1; Sp100A- or Ubc5a-directed IP, IB; Buffer A, 4°C; settings: both partners purified
His-IE1 (pET-IE1) [2] = biological target: T1, His-IE1 (pET-IE1); assay: pull-down; in vitro pull-down: 1μg of each purified His-tagged protein (His-IE1 or His-Δ451–475 with His-Hes1) mixed in 300μl Buffer A (50mM NaH2PO4, 300mM NaCl, pH 8.0), antibody overnight at 4°C, protein A+G agarose; settings: both partners purified

| Binder | binding result (His-IE1 (pET-IE1) [1]) | binding result (His-IE1 (pET-IE1) [2]) |
| --- | --- | --- |
| B1 | binds |  |
| B2 |  | binds |
